Data: US20230399417A1 (Genentech, published 2023)
No end group written: not given here.

T1: mouse IL-1β peptide 21LFFEVD26 (mouse)
T1 construct: Liberated C-terminus of the noncanonical cleavage site, with free C-terminal Asp
T1 peptide: LFFEVD-OH

T2: IL-18 peptide 30GDLESD35
T2 construct: Liberated C-terminus of IL-18, with free C-terminal Asp
T2 peptide: GDLESD

B1: CJ11 Fab (Fab, V domains shown)
VH: QSVEESGGGLVTPGTPLTLTCTVSGIDLSRYAMSWVRQAPGKGLEWIGIFGSLGGIFYASWAKGRFTISKTSPTTVDLKITSPTTEDTATYFCARMPYTTDRDFWGPGTLVTVSS
VL: DIVMTQTPSSTSAAVGGTVTITCQASQSVANNNYLKWYQQKRGQPPKQLIYSVSTLASGVPSRFKGSGSGTQFTLTISDLECDDAATYYCSGYFNNNIGAFGGGTKLEIK
notes: also called its Fab
B2: CJ11 Fab modified by reductive lysine methylation (Fab, V domains shown)
VH: B1 VH
VL: B1 VL
modifications: lysines modified by reductive methylation

Experiments:
[1] = target: T1, mouse IL-1β peptide 21LFFEVD26; test: X-ray co-crystal structure
IL-18 peptide 30GDLESD35 = target: T2, IL-18 peptide 30GDLESD35; test: X-ray co-crystal structure

Binder | binding result [1] | binding result (IL-18 peptide 30GDLESD35)
B1 | binds | –
B2 | – | binds
